The record followed here is patent publication US20060148715A1, “Structural requirements for STAT3 binding and recruitment to phosphotyrosine ligands” (BAYLOR COLLEGE OF MEDICINE, priority 2004, published 2006).

Where two headings read alike, the source gives them in different places. Non-standard residues stand in square brackets, D forms with d. Residues, ends and D or L forms follow the SMILES beside them. No end group written: not given here. *: point of attachment. d‑Biotin‑LC = N-terminal biotin (d-Biotin-LC), O=C(CCCC[C@@H]1SC[C@@H]2NC(=O)N[C@@H]21)NCCCCCC(=O)*; Biotin = O=C1N[C@H]2[C@H](CS[C@H]2CCCCC(=O)*)N1; pY = N[C@@H](Cc1ccc(OP(=O)(O)O)cc1)C(=O)O; Ahx = NCCCCCC(=O)O

One assay concerns the target T1, wild type Stat3 (Homo sapiens, UniProt P40763).
T1 construct: made in house; host or cells: Sf9 insect cells (baculovirus, pFastBac1)
Description: Mirror resonance affinity assay (resonant mirror biosensor). The following applies: for Kd: wild type Stat3 binding to G-CSFR phosphododecapeptides, ratio kdiss/kass, read-out: KD. The format is binding. As for the experimental part: (§1) Kinetics experiments were performed using an lasys Auto+ resonant mirror biosensor (Affinity Sensor, Paramus, N.J.) (see Sadowski et. al, 1986). Briefly, two-welled cuvettes coated on the bottom of each well with biotin were purchased from Affinity Sensor and prepared for immobilization of biotinylated peptides by coating each surface with 0.04 mg/ml NeutrAvidin (Pierce) and washing with PBS-T (20 mM Na Phosphate, 0.05% Tween-20). Biotinylated peptide (5 μg) was added into each well—experimental peptide to one well and control peptide to the other—and change in arc seconds monitored simultaneously in both wells using the biosensor until stable followed by washing with PBS-T. Real-time binding of Stat3 was conducted at 25° C. at a stir speed of 70 for 10 min starting at the lowest concentration of Stat3. The wells were washed out with three changes of 60 μl PBS-T, and dissociation was allowed to proceed for 5 min. Each well bottom was regenerated by washing with […] of 100 mM formic acid for 2 min and equilibrated with PBS-T for the next round of association assay. Data were collected automatically and analyzed with the FASTplot and GraFit software (see Sheinerman et. al, 2003).
(§2) Mirror resonance affinity assay. Two cells of a biotin-coated cuvette pretreated with saturating amounts of NeutrAvidin. One well of the cuvette was pretreated with biotinylated phosphopeptide based on Y1068 (pY1068, left panel), while the other well was pretreated with biotinylated non-phosphorylated peptide Y1068 (Y1068, right panel) as a control for non-specific binding. Wild type or mutated Stat3 protein was added in the concentrations indicated to each of the two cells and mirror resonance measurements recorded continuously for 10 min as shown.
To obtain quantitative kinetic information about the binding of Stat3 to G-CSFR Y704 and Y744 including association rates (kass), disassociation rates (kdiss) and dissociation equilibrium constants (KD), real-time affinity measurements using a mirror resonance biosensor were performed. The biosensor exploits surface plasmon resonance to measure in real time the alteration in the angle of a laser light reflected from a surface upon which binding events are occurring. Biotinylated peptides were immobilized onto the bottom surface of cuvette wells pre-coated with NeutrAvidin. The interaction of peptides with Stat3 added at different concentrations was measured in real time as altered deflection of a laser light striking the bottom surface of the cuvette; the alterations in the deflection angle measured in arc seconds was analyzed with GraFit software. […] The slightly lower KD for Y704 vs. Y744 is attributable to a faster association rate of Stat3 binding to this phosphododecapeptide.

In assay [1] the target is T2, Stat3-3M (Homo sapiens, UniProt P40763, E638L/Y640F/Y657F).
T2 construct: made in house; host or cells: Sf9 insect cells (baculovirus, pFastBac1)
T2 sequence (P40763 whole entry E638L/Y640F/Y657F): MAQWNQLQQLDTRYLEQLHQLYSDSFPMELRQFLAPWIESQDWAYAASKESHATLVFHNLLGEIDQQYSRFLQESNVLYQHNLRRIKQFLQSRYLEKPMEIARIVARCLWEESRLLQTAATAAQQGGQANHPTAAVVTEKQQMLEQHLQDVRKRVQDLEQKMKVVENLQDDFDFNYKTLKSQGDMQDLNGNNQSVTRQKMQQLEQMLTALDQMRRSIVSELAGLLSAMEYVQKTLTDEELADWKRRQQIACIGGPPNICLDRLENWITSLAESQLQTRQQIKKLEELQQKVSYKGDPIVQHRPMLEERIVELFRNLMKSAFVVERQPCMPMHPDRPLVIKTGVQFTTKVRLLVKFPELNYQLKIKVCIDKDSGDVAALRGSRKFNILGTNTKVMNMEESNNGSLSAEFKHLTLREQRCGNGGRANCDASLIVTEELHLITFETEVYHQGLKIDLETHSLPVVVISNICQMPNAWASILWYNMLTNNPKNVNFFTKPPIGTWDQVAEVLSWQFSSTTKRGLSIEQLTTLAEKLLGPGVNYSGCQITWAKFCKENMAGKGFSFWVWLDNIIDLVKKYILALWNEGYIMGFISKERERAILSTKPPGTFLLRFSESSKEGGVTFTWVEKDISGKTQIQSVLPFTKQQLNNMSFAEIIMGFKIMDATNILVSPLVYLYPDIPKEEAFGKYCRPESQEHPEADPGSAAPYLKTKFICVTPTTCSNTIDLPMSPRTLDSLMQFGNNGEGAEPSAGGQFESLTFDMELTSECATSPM
Described as above. The format is binding. The following applies: Stat3-3M binding to G-CSFR phosphododecapeptides; ratio kdiss/kass; read-out: KD. The method, then:
as §1, §2

In assay [2] the target is pY704 phosphododecapeptide (G-CSFR) (human). The assay can be described thus: mirror resonance biosensor, biotinylated peptide on NeutrAvidin, Stat3 in solution.
Assay [3] addresses pY1068 phosphododecapeptide (EGFR). Described as above.
The target of assay [4] is pY744 phosphododecapeptide (G-CSFR) (human). The assay is described as above.
In assay [5] the target is T3, Stat3-E638P (human, UniProt P40763 1-770).
T3 construct: Produced in Sf9 cells; CD spectrum essentially identical to wild type
T3 sequence (P40763 other isoform, or with tags, fused parts or gaps E638P E638P limits assumed): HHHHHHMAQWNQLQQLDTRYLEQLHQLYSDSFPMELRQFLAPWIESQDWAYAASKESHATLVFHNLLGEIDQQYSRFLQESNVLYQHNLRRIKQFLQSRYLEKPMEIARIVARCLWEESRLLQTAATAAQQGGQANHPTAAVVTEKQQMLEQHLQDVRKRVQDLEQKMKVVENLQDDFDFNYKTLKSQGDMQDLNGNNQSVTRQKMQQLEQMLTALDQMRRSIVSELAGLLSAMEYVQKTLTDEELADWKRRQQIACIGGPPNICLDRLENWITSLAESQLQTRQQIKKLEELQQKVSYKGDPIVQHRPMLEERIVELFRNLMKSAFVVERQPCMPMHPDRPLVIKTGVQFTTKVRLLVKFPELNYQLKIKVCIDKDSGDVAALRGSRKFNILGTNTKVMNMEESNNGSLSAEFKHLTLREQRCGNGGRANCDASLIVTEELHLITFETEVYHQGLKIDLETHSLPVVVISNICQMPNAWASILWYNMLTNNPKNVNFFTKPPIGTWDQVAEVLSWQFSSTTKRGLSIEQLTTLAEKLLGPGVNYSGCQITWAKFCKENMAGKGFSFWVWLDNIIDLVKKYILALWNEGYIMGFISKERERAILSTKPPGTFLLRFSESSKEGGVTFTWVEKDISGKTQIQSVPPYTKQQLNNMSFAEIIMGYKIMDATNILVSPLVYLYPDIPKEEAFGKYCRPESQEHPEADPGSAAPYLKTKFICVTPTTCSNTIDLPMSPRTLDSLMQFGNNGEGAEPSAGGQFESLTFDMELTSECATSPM
Description: peptide pull-down: biotinylated peptide on NeutrAvidin agarose, purified His-tagged Stat3 protein added, bound protein immunoblotted with Stat3 mAb. On the technique in general: In western blotting, separated proteins are transferred to a membrane and probed.

The target in assay [6] is T4, wild type Stat3 (recombinant human Stat3alpha with N-terminal 6-histidine tag) (human, UniProt P40763 1-770).
T4 construct: Expressed in Sf9 cells and purified on Ni-NTA for peptide assays; expressed from pcDNA3.1 in 293T cells for the G-CSFR co-immunoprecipitation; also called WT; purified Stat3
T4 sequence (P40763 other isoform, or with tags, fused parts or gaps limits assumed): as the sequence (P40763 other isoform, or with tags, fused parts or gaps E638P E638P limits assumed) above, with P644E counted along it
The assay is described as above.

The target of assay [7] is T5, Stat3-3M (human, UniProt P40763 1-770, limits assumed). Described as above.
T5 sequence (P40763 other isoform, or with tags, fused parts or gaps limits assumed): as the sequence (P40763 other isoform, or with tags, fused parts or gaps E638P E638P limits assumed) above, with P644L, Y646F, Y663F counted along it
Assay [8] has as its target T4, wild type Stat3 (recombinant human …). The description is as above. The source holds these as a separate data set.
The target in assay [9] is T3, Stat3-E638P. The assay is described as above. The source holds these as a separate data set.
For assay [10], the target named is T3, Stat3-E638P. The assay can be described thus: mirror resonance biosensor: biotinylated peptide on NeutrAvidin-coated cuvette, Stat3 protein in solution, association followed for about 10 min. As for the experimental part: as §1, with “Biotinylated peptide (5 μg) was added into each well—experimental peptide to one well and control peptide to the other—and change in arc seconds monitored simultaneously in both wells using the biosensor until stable followed by washing with PBS-T. Real-time binding of Stat3 was conducted at 25° C. at a stir speed of 70 for 10 min starting at the lowest concentration of Stat3.” left out
(§3) Mirror resonance affinity assay. Two cells of a biotin-coated cuvette pretreated with saturating amounts of NeutrAvidin. One well of the cuvette was pretreated with biotinylated phosphopeptide based on Y1068 (pY1068, left panel), while the other well was pretreated with biotinylated non-phosphorylated peptide Y1068 (Y1068, right panel) as a control for non-specific binding.

The next assay concerns the target Stat3-4M (human, UniProt P40763 1-770, limits assumed). The assay can be described thus: peptide pull-down: biotinylated peptide on NeutrAvidin agarose, purified His-tagged Stat3 protein added, bound protein immunoblotted with Stat3 mAb.
The target in the next assay is Stat3-6M (human, UniProt P40763 1-770, limits assumed). The assay is described as above.
Stat3-6M, sequence (P40763 other isoform, or with tags, fused parts or gaps limits assumed): as the sequence (P40763 other isoform, or with tags, fused parts or gaps E638P E638P limits assumed) above, with P644L, Y646F, Y663F, C693A, S697A, Q698L counted along it
Assay [11] addresses T5, Stat3-3M. The description is as above. This is another data set of the same source.
Assay [12] addresses T4, wild type Stat3 (recombinant human …). Description: mirror resonance biosensor: biotinylated peptide on NeutrAvidin-coated cuvette, Stat3 protein in solution, association followed for about 10 min. As for the experimental part:
as §1, with “Biotinylated peptide (5 μg) was added into each well—experimental peptide to one well and control peptide to the other—and change in arc seconds monitored simultaneously in both wells using the biosensor until stable followed by washing with PBS-T. Real-time binding of Stat3 was conducted at 25° C. at a stir speed of 70 for 10 min starting at the lowest concentration of Stat3.” left out
as §3

T1 sequence (P40763 whole entry): as the sequence (P40763 whole entry E638L/Y640F/Y657F) above, with L638E, F640Y, F657Y counted along it
Stat3-4M, sequence (P40763 other isoform, or with tags, fused parts or gaps limits assumed): as the sequence (P40763 other isoform, or with tags, fused parts or gaps E638P E638P limits assumed) above, with P644E, Y663F, C693A, S697A, Q698L counted along it

Broadly, the Kd is the free concentration of one partner at which half of the binding sites on the other are occupied at equilibrium, for simple one-to-one binding. Turning to `CC(C)C[C@H](NC(=O)[C@H](Cc1ccc(OP(=O)(O)O)cc1)NC(=O)[C@H](Cc1c[nH]cn1)NC(=O)CNC(=O)[C@@H]1CCCN1C(=O)CNC(=O)[C@@H]1CCCN1C(=O)CCCCCNC(=O)CCCC[C@@H]1SC[C@@H]2NC(=O)N[C@@H]21)C(=O)N[C@@H](CCCNC(=N)N)C(=O)N[C@@H](CS)C(=O)N[C@@H](CC(=O)O)C(=O)N[C@@H](CO)C(=O)N[C@H](C(=O)O)[C@@H](C)O` [compound 744, PGPGHpYLRCDST] ({Biotin-Ahx}-PGPGH[pY]LRCDST-OH), the Kd at wild type Stat3 amounted to 950 nM; on Stat3-3M [1], 1060 ± 150 nM.

For the molecule “wild type Stat3 (recombinant human Stat3alpha with N-terminal 6-histidine tag) (from UniProt P40763 1-770)”, the Kd came out at 703 nM in assay [2], 223 nM in assay [3] and 950 nM in assay [4].

In the case of `CC(C)C[C@H](NC(=O)[C@@H](NC(=O)[C@H](Cc1ccc(OP(=O)(O)O)cc1)NC(=O)[C@@H](NC(=O)[C@H](CCC(N)=O)NC(=O)[C@@H](NC(=O)[C@H](CC(C)C)NC(=O)[C@@H](NC(=O)CCCCCNC(=O)CCCC[C@@H]1SC[C@@H]2NC(=O)N[C@@H]21)[C@@H](C)O)C(C)C)[C@@H](C)O)C(C)C)C(=O)N[C@@H](CCC(N)=O)C(=O)NCC(=O)N[C@@H](CC(=O)O)C(=O)N1CCC[C@H]1C(=O)O` [compound 704, TLVQTpYVLQGDP] ({Biotin-Ahx}-TLVQT[pY]VLQGDP-OH), the values for the Kd at wild type Stat3 and at Stat3-3M [1] were 703 nM and 1210 nM, respectively.

Regarding “LPVPE(pY)INRSVP (LPVPE[pY]INRSVP) [Y1068 Q-to-R PDP]”, in the assay with wild type Stat3 (wild type Stat3), the “Stat3 binding in real-time resonance mirror affinity assay” value is recorded as “undetectable”.

Turning to {d‑Biotin‑LC}-TLVQTYVLQGDP [Y704 non-phosphorylated dodecapeptide (G-CSFR)], the binding result (with Stat3-E638P [5]; in [6]; with Stat3-3M [7]) was “no binding” throughout.

As to {d‑Biotin‑LC}-PSPLS[pY]ENLTFQ [pY764 phosphododecapeptide (G-CSFR)], the binding result (in the assay with Stat3-E638P [5]; in assay [6]) was “no binding” each time.

As for {d‑Biotin‑LC}-SDQVL[pY]GQLLGS [pY729 phosphododecapeptide (G-CSFR)], the binding result (in the assay with Stat3-E638P [5]; in assay [6]) was “no binding” in each case.

For {d‑Biotin‑LC}-LPVPE[pY]INLSVP [pY1068-L phosphododecapeptide (EGFR Y1068, +3 Q to L)], the binding result (in assay [8]; with Stat3-E638P [9]) was “no binding” each time.

B1: pY992 (peptide)
peptide: {d‑Biotin‑LC}-TDSNF[pY]RALMDE
notes: EGFR-based control phosphopeptide; also called pY992 phosphododecapeptide (EGFR)
Consider B1, for which, in the assay with Stat3-E638P [9], the binding result is “no binding”.

B2: pY1086 phosphododecapeptide (EGFR) (peptide)
peptide: {d‑Biotin‑LC}-VQNPV[pY]HNQPLN
notes: also called Y1086 PDP; Y1086 phosphopeptide
For B2, in the assay with Stat3-E638P [9], the binding result is listed as “no binding”.

B3: pY1068 phosphododecapeptide (EGFR) (peptide)
peptide: LPVPEXINQSVP
modifications: phosphotyrosine at position 6 (EGFR Y1068); N-terminal biotin (d-Biotin-LC)
notes: also called Y1068 PDP; Y1068 phosphopeptide
B3: in the assay with Stat3-E638P [10], the binding result was “no binding (tested: 600 nM)”.

Turning to {d‑Biotin‑LC}-TLVQT[pY]VLQGDP [pY704 phosphododecapeptide (G-CSFR)], the binding result with Stat3-E638P [5] is “no binding”.

Turning to {d‑Biotin‑LC}-LPVPE[pY]INRSVP (also called Y1068 Q-to-R PDP) [pY1068-R phosphododecapeptide (EGFR Y1068, +3 Q to R)], the binding result (in assay [8]; with Stat3-E638P [9]) was “no binding” each time.

As for {d‑Biotin‑LC}-PGPGH[pY]LRCDST [pY744 phosphododecapeptide (G-CSFR)], in the assay with Stat3-E638P [5], the binding result is recorded as “no binding”.

With {d‑Biotin‑LC}-LPVPE[pY]INESVP [pY1068-E phosphododecapeptide (EGFR Y1068, +3 Q to E)], the binding result (in [8]; with Stat3-E638P [9]) was “no binding” in each case.

B4: Y1068 non-phosphorylated dodecapeptide (EGFR) (peptide)
peptide: {d‑Biotin‑LC}-LPVPEYINQSVP
notes: also called unphosphorylated Y1068 dodecapeptide
Consider B4, for which the binding result with Stat3-4M is recorded as “no binding”; with Stat3-6M, “no binding”; with Stat3-3M [11] it was “no binding”; with Stat3-E638P [10], “no binding (tested: 600 nM)”; in assay [12], “no binding”.

For {d‑Biotin‑LC}-LPVPE[pY]INMSVP [pY1068-M phosphododecapeptide (EGFR Y1068, +3 Q to M)], the binding result (in assay [8]; with Stat3-E638P [9]) was “no binding” each time.

B5: pY1173 (peptide)
peptide: {d‑Biotin‑LC}-LDNPD[pY]QQDFFP
notes: EGFR-based phosphopeptide; also called pY1173 phosphododecapeptide (EGFR)
With B5, the binding result in the assay with Stat3-E638P [9] is listed as “no binding”.

B6: pY1148 (peptide)
peptide: {d‑Biotin‑LC}-VGNPE[pY]LNTVQP
notes: EGFR-based phosphopeptide; also called pY1148 phosphododecapeptide (EGFR)
Regarding B6, the binding result with Stat3-E638P [9] is “no binding”.
